Assay results reported in PMC12057666 (Science Advances, 2025).

B1: Es1.327 IgG antibody (antibody, V domains shown)
VH: QVQLVQSGGEVKKPGASVRVSCQTSGYSFTHYSITWVRQAPGQGLEWMGWITTYNGKTSYAQKFQDRVTMTADTSSRTAYVELRSLRSDDTAVYYCVRVWTGYGTNRGDYWGQGTLVTVSS
VL: PSSLYASVGDRVTITCRASQSINTFLNWYQQKPGNAPKLLIHAASTLESGVPSRFSGSGSGTDFTLTISSLQPEDFATYYCQQSDNNFALTFGGGTKVEIR
notes: source: Freestyle 293-F, transient cotransfection, purified (Protein G Sepharose 4 Fast Flow)
B2: Es5.127 IgG antibody (antibody, V domains shown)
VH: EVQLVQSGAEVKKPGESLKISCKGSGYRSGYSFSSYWIGWVRQRPGKGLEWMGIIQPGDSDTTYSPSFQGQVTISADKSINTAYLQWSSLKASDTAIYYCARVRGSLKVPAAVPFDPWGQGTLVTVSS
VL: QSVLTQPPSVSAAPGQKVTISCSGSSSNIGNNYVSWYQQFPGIAPKLLIYDNNKRPSGIPDRFSGSKSGTSATLGITGLQTGDEADYYCGTWDSSLSDVVFGGGTKLTVL
notes: as for B1
B3: Es4.431 IgG antibody (antibody, V domains shown)
VH: EVQLLESGGGLVQPGGSLRLSCTASGFTFDTHVMSWVRQGPGKGLEWVSSISAASGTYYAGSVKGRFTISRDNSKNTLFLHMNSLRVEDTGVYYCANVVHRCTTNTCFRGADNWGQGTLVTVSS
VL: PSSLSASVGDRVTITCRASQSVDTYLNWYQQKPGETPKLLIYAASTLQSGVPSRFSGSGSGTTFTLTISSLQPEDFATYYCQQSYTTLMYTFGQGTKLEIK
notes: as for B1

Tests used:
Details in all cases: both partners purified
[1] = target: T1, HEV-P, wild-type HEV-CA P domain protein, ORF2(455-601), genotype 3, 2712 strain (hepatitis E virus genotype 3, strain …, UniProt Q9YLQ9); assay: ELISA; plates coated overnight with 125 ng per well of purified protein; serial dilutions of monoclonal antibodies in PBS, 2 hours; HRP anti-human IgG
T1 construct: source: Freestyle 293-F, transient transfection (PEI), purified from culture supernatant (Ni Sepharose Excel)

[2] = target: T2, HEV-C1 capsid protein (Rocahepevirus, rat hepatitis E virus) (Rocahepevirus (rat hepatitis E virus …, UniProt E0XL23, strain)); assay: SPR; Biacore 2000; purified IgG (10 μg/ml) captured on Protein G sensor chip; capsid proteins injected at 5 or 10 to 0.312 nM; HBS-EP (10 mM Hepes pH 7.2, 150 mM NaCl, 3 mM EDTA, 0.005% Tween 20); 22°C; Langmuir model, global analysis; apparent affinity
T2 construct: capsid protein (ORF2) of Rocahepevirus HEV-C1 (rat hepatitis E virus); Igk leader at the N terminus of the construct; also called HEV-C1 protein; Rocahepevirus CA; source: Freestyle 293-F, transient transfection (PEI), purified from culture supernatant (Ni Sepharose Excel)

[3] = target: T3, genotype 1d HEV-CA protein (1d Morocco) (Hepatitis E virus genotype 1d, Morocco, …, UniProt Q9W7W9, strain); assay: as above
T3 construct: hepatitis E virus capsid protein (ORF2), genotype 1d, strain Morocco; the 3-2712 HEV-CA construct of the same list is ORF2 126-601; Igk leader at the N terminus of the construct; also called genotype 1 HEV-CA; source: Freestyle 293-F, transient transfection (PEI), purified from culture supernatant (Ni Sepharose Excel)

[4] = target: T4, genotype 3a HEV-CA protein (3a Meng) (Hepatitis E virus genotype 3a, swine …, UniProt Q6J8F7, strain); assay: as above
T4 construct: also called genotype 3 HEV-CA; source: Freestyle 293-F, transient transfection (PEI), purified from culture supernatant (Ni Sepharose Excel)

T1 sequence (Q9YLQ9 455-601): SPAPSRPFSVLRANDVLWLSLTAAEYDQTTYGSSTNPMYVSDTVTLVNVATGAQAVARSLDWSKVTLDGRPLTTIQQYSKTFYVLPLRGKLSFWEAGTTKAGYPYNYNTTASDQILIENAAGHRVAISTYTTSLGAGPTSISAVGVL

Row | Binder | binding result [1] | Kd [2] [nM] | binding result [3] | Kd [4] [nM]
1 | B1 | binds |  |  | 
2 | B2 |  | 1.6 | binds | 0.41
3 | B3 | binds |  |  | 
